Biological target: wild-type human integrin α5β1 (octyl β-D-glucopyranoside preparation) (human), P08648
Assay: competitive binding assay on α5β1-coated plates, isoDGR/STV-HRP probe

wild-type human integrin α5β1 (octyl β-D-glucopyranoside preparation) (human), P08648, sequence (P08648 42-1049, chain 1 of 2): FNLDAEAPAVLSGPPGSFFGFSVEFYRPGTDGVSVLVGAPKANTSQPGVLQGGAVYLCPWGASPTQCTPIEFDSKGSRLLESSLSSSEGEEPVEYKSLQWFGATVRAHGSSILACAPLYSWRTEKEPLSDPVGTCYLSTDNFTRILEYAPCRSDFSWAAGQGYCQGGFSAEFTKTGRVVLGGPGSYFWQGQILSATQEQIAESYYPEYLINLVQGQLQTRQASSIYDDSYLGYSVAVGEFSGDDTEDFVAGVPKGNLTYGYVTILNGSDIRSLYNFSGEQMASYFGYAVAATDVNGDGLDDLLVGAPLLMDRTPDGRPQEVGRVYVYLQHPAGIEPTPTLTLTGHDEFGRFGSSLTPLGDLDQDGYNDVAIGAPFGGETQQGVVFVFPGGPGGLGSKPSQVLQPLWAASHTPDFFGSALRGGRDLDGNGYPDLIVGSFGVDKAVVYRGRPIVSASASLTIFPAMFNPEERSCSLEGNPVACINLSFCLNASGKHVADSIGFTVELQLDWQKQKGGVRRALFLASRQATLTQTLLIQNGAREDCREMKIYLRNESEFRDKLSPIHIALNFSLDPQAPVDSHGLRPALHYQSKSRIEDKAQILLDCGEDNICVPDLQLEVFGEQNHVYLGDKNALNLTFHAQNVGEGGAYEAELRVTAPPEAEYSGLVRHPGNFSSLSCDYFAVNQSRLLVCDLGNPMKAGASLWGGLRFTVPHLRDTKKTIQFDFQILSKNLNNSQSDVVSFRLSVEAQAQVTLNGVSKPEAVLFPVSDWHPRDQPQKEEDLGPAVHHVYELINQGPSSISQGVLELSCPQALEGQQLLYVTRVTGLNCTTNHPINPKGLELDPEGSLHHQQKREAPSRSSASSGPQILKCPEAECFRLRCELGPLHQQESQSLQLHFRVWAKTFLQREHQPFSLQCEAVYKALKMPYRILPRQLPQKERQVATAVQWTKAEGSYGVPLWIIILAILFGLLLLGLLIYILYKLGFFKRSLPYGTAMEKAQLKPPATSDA
wild-type human integrin α5β1 (octyl β-D-glucopyranoside preparation) (human), P08648, sequence (P05556 21-798, chain 2 of 2, further chain): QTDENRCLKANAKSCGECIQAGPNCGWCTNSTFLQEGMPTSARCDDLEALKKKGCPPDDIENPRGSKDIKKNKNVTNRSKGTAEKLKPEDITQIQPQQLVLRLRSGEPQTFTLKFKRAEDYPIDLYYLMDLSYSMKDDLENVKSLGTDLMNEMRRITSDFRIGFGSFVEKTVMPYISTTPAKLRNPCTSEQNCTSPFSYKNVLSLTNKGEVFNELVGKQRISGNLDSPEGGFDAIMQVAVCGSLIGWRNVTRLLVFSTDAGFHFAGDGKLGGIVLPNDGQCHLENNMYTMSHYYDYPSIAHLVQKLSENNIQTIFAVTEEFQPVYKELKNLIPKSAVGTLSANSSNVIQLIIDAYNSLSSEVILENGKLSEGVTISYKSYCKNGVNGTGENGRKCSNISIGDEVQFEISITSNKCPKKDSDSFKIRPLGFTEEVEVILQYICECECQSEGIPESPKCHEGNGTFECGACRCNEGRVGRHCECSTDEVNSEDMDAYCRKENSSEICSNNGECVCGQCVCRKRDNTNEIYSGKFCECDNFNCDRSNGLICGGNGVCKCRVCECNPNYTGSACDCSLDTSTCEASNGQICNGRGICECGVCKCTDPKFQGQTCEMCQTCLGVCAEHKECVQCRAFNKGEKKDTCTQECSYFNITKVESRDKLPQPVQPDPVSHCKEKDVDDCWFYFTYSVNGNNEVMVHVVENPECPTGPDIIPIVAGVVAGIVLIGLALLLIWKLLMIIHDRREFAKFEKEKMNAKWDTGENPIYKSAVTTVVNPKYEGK

B1: foot and mouth disease virus-derived peptide A20FMDV2 (peptide)
peptide: NAVPNLRGDLQVLAQKVART
modifications: not checked
Q: Which Ki does the source give for B1 here?
A: 2.32 µM
